Reference: publication PMC9908020, “Structural basis of the transcription termination factor Rho engagement with transcribing RNA polymerase from Thermus thermophilus” (Science Advances, 2023)

B1: Thermus thermophilus RNA polymerase ω subunit (natural protein)
chain: MAEPGIDKLFGMVDSKYRLTVVVAKRAQQLLRHGFKNTVLEPEERPKMQTLEGLFDDPNAVTWAMKELLTGRLVFGENLVPEDRLQKEMERLYPVEREE
notes: RNA polymerase ω subunit, Thermus thermophilus; It stood in the assay as a subunit of the RNAP complex m2; It was cloned in pET-47b, which may add a cleavable N-terminal His tag (surmise); source: E. coli Rosetta2 (DE3), coexpressed and purified as part of RNAP
B2: Thermus thermophilus transcription termination factor Rho (enzyme)
chain: MRRKETLQETPLTYQELASKILPELHLLAQEAGIEGYKRMKKDQLIMALLERQTQGEGLRLVKGYLEISQDGYGFLTENLHNLESRVAIVSAGLIKQYALRAGDYVVGQARPPRENERYATLLKVEAVNNLDPEAAKNRPRFDELTPQFPDRQIRLETTPDELSTRVIDLLAPIGRGQRGLIVAPPKAGKTTLLKKIANAVLKNEPDIKVIVLLIDERPEEVTDFRESVQGAEVIASTFDEPPQNHIRVAEFVHERAKRIVEEGGHVMILLDSITRLARANNLVTPPTGRTLSGGLDSAALYFPKRFLGAARNIRGGGSLTILATALVETGSRMDDVIFEEFKGTGNMELHLSRRLEERRIFPAIDILKSGTRREELLLGEEVTHKMWLLRKVLADMDPAEAMEMLLARLARTKNNKEFLASLAAR
notes: Transcription termination factor Rho, Thermus thermophilus; the C terminus is printed as Arg426; the model leaves out 59 residues at the N terminus; Closed-ring homo-hexamer with ADP·BeF3 at the protomer interfaces; RNA is threaded through the central channel in the RNAP complexes; also called wild-type Rho; Rho hexamer; not shown: His tag, N-terminal, cleaved

How the values were obtained:
T. thermophilus Rho = target: T1, T. thermophilus Rho (Thermus thermophilus, UniProt Q5SJE9); assay: Rho-dependent RNA release from immobilised RNAP elongation complex, urea-PAGE; assay type: biochemical; details: 1 mM ATP, 200 nM Rho, 10 mM MgCl2, pH 7.5, 65 °C; with T. thermophilus RNAP elongation complex
T1 construct: full-length (C terminus Arg426), N-terminal His-tag cleaved by HRV 3C; pET-47b in E. coli Rosetta2 (DE3); closed-ring homohexamer; model lacks 59 N-terminal residues

[1] = target: B2; assay: cryo-EM structure; type 1 class: EC (RNAP with template DNA and 125-nt nascent RNA, gel filtered) mixed with Rho and 0.5 mM ADP·BeF3 in buffer C (20 mM Hepes-NaOH pH 7.5, 250 mM KCl, 5 mM MgCl2, 1% glycerol), cross-linked with 3 mM BS3; nascent RNA threaded into the Rho ring; details: both partners purified
[2] = target: the molecule itself; assay: cryo-EM structure; Rho-only class of the same sample: closed-ring hexamer with ADP·BeF3 between the protomers; C6 symmetry
[3] = target: T2, Thermus thermophilus RNA polymerase lacking the β-flap tip helix (Thermus thermophilus, UniProt Q5SHR6 1-315; Q8RQE9 1-761; Q8RQE9 783-1119; Q8RQE8 1-1524; Q8RQE7 1-99); assay: cryo-EM structure; EC-Rho complex prepared with the β-flap tip-deleted RNAP; 2D class averages of ~3000 particles of the RNAP-Rho complex; details: both partners purified
T2 construct: RNA polymerase α subunit, Thermus thermophilus; RNA polymerase β subunit, Thermus thermophilus, up to the residue before the deleted β-flap tip helix (β762 to β782 removed); three alanine residues that fill the gap; RNA polymerase β subunit, Thermus thermophilus, from the residue after the deleted β-flap tip helix; RNA polymerase β′ subunit, Thermus thermophilus; RNA polymerase ω subunit, Thermus …

[4] = target: T3, Thermus thermophilus RNA polymerase β subunit (Thermus thermophilus, UniProt Q8RQE9 1-1119); assay: cryo-EM structure; type 1 class: EC (RNAP with template DNA and 125-nt nascent RNA, gel filtered) mixed with Rho and 0.5 mM ADP·BeF3 in buffer C (20 mM Hepes-NaOH pH 7.5, 250 mM KCl, 5 mM MgCl2, 1% glycerol), cross-linked with 3 mM BS3; nascent RNA threaded into the Rho ring; details: both partners purified
T3 construct: RNA polymerase β subunit, Thermus thermophilus; It stood in the assay as a subunit of the RNAP complex m2; source: E. coli Rosetta2 (DE3), coexpressed and purified as part of RNAP

[5] = target: T4, Thermus thermophilus RNA polymerase β′ subunit (Thermus thermophilus, UniProt Q8RQE8 1-1524); assay: as above; details: both partners purified
T4 construct: RNA polymerase β′ subunit, Thermus thermophilus; It stood in the assay as a subunit of the RNAP complex m2; source: E. coli Rosetta2 (DE3), coexpressed and purified as part of RNAP

Molecule: Nc1ncnc2c1ncn2[C@@H]1O[C@H](COP(=O)(O)OP(=O)(O)OP(=O)(O)O)[C@@H](O)[C@H]1O [ATP]
Rho-dependent RNA release from immobilised RNAP elongation complex, urea-PAGE (T. thermophilus Rho): The RNA release is ATP dependent, as it did not occur in either the absence

Molecule: B1
binding result [1]: binds

Molecule: B2
stoichiometry N [2]: 6 | binding result [3]: binds | binding result [4]: binds | binding result [5]: binds
